Laboratory results as given in patent publication US6004793.

Tested on: AvaI restriction endonuclease (recombinant) V1M (start codon GTG changed to ATG) (Anabaena variabilis)
Experiment: cleavage_in_vitro
Conditions: extract of ER2504 [pLG-BsoBIM, pLysS, pAII17-AvaIR]; lambda DNA digestion; recognition site not given

Substance: bacteriophage lambda DNA
- activity (units/g wet cells): 6.4e+06
